Values belong to the molecule of their own block, whether it stands above or below them.
Experiments:
[1] = molecular target: MmsR, LysR-type transcriptional activator protein of Pseudomonas denitrificans, tagged with six histidine residues at the C-terminus (Pseudomonas denitrificans ATCC 13867); assay: native gel or EMSA + SEC; native PAGE and/or gel filtration of purified His-tagged MmsR at the high concentration of 550 nM; monomer to dimer
MmsR = molecular target: T1, MmsR (Pseudomonas denitrificans (nom. rej.), UniProt A0A9X7MYS1); assay: EMSA with mmsA promoter DNA, purified MmsR with and without inducer; conditions: 25 mM 3-HP; 40 nM DNA probe; pH 7.4, 750 mM KCl; effector of DNA binding (inducer)
T1 construct: gene F1C79_09590; cell rows: native chromosomal MmsR; gene divergent from mmsA
T1 sequence (A0A9X7MYS1 1-298): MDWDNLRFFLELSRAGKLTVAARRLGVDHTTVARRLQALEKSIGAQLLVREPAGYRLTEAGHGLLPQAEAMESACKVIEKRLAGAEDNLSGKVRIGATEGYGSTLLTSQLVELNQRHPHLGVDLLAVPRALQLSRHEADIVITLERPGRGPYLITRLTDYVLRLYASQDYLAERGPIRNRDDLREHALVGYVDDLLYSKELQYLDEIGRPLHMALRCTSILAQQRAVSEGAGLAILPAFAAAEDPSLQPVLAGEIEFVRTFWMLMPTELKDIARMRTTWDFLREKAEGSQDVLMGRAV

[2] = molecular target: T2, MmsR (LysR-type transcriptional activator, C4-LysR) (Pseudomonas denitrificans ATCC 13867, UniProt A0A9X7MYS1 1-298); assay: DNase I footprinting; no 3-HP; O1 more protected than O2; 50 mM Tris pH 7.4, 750 mM KCl (1X as printed), 0.5 mM DTT, 0.5 mM EDTA, room temperature; EMSA 40 nM DNA, 0-48.5 nM MmsR, 30 min; footprinting 230 nM DNA, 0-1.2 uM MmsR; conditions: protein: recombinant; tags: C-terminal His6 (pET30b+); chain copies: 2; blunt
T2 sequence: T1 sequence (A0A9X7MYS1 1-298)

[3] = molecular target: T2, MmsR (LysR-type transcriptional …); assay: EMSA; no 3-HP; stronger shift than F1M2; 50 mM Tris pH 7.4, 750 mM KCl (1X as printed), 0.5 mM DTT, 0.5 mM EDTA, room temperature; EMSA 40 nM DNA, 0-48.5 nM MmsR, 30 min; footprinting 230 nM DNA, 0-1.2 uM MmsR; conditions: protein: recombinant; tags: C-terminal His6 (pET30b+); chain copies: 2; label: none (SYBR Green stain); blunt
[4] = molecular target: T2, MmsR (LysR-type transcriptional …); assay: EMSA; no 3-HP; 50 mM Tris pH 7.4, 750 mM KCl (1X as printed), 0.5 mM DTT, 0.5 mM EDTA, room temperature; EMSA 40 nM DNA, 0-48.5 nM MmsR, 30 min; footprinting 230 nM DNA, 0-1.2 uM MmsR; conditions: protein: recombinant; tags: C-terminal His6 (pET30b+); chain copies: 2; label: none (SYBR Green stain); blunt

stoichiometry N [1]: 2
Molecule: MmsR, LysR-type transcriptional activator protein of Pseudomonas denitrificans, tagged with six histidine residues at the C-terminus (natural protein)

Molecule: O=C(O)CCO [compound 1, 3-hydroxypropionic acid]
EMSA with mmsA promoter DNA, purified MmsR with and without inducer (MmsR): 3-HP promotes the binding affinity between MmsR and the PmmsA promoter

B1: 169 bp footprinting fragment (dsDNA)
DNA 1: CCGCAGGTTGTCCCAGTCCATGTCAGCCTCAGCGCACCTCGAATGTGCAAAAACGCAGACCATACTTGCACATCACCGCATTGAGTACATCAAAAATGCACTGTTAGGATCGATCCAGACAACAAAAAAGCCACAGGCTGGGAGAATCCCGATGACCGCAACTGCCCCG
DNA 2: CGGGGCAGTTGCGGTCATCGGGATTCTCCCAGCCTGTGGCTTTTTTGTTGTCTGGATCGATCCTAACAGTGCATTTTTGATGTACTCAATGCGGTGATGTGCAAGTATGGTCTGCGTTTTTGCACATTCGAGGTGCGCTGAGGCTGACATGGACTGGGACAACCTGCGG
binding result [2]: binds

B2: F12M (O1 intact, O2 mutant) (dsDNA)
DNA 1: GTCAGCCTCAGCGCACCTCGAATGTGCAAAAACGCAGACCATACTTGCACATCACCGCATTGAGTACATCAATCCTTGCTTGTTAGGATCGCGCCCAGGCACAAAAAAGCCACAGGCTGGGAGAATCCCG
DNA 2: CGGGATTCTCCCAGCCTGTGGCTTTTTTGTGCCTGGGCGCGATCCTAACAAGCAAGGATTGATGTACTCAATGCGGTGATGTGCAAGTATGGTCTGCGTTTTTGCACATTCGAGGTGCGCTGAGGCTGAC
binding result [3]: binds

B3: F12 (O1 and O2 intact) (dsDNA)
DNA 1: GTCAGCCTCAGCGCACCTCGAATGTGCAAAAACGCAGACCATACTTGCACATCACCGCATTGAGTACATCAAAAATGCACTGTTAGGATCGATCCAGACAACAAAAAAGCCACAGGCTGGGAGAATCCCG
DNA 2: CGGGATTCTCCCAGCCTGTGGCTTTTTTGTTGTCTGGATCGATCCTAACAGTGCATTTTTGATGTACTCAATGCGGTGATGTGCAAGTATGGTCTGCGTTTTTGCACATTCGAGGTGCGCTGAGGCTGAC
binding result [4]: binds
